Experimental data as given in the supplement of paper PMC12042874.
± gives the uncertainty stated by the source.

Assay: amyloid nucleation score (Sup35N fusion, yeast selection) (log enrichment); library NNK3; higher = more nucleation; inactive = no reads after selection
Procedure, shortened: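 Plasmid inserts were Illumina-sequenced at input and output from psi-negative yeast expressing Sup35N fused to peptides of 20 random codons. The yeast were induced with 100 μM copper sulfate for 24 hours and grown 7 days at 30°C on medium lacking adenine and uracil, and sequences with under 100 input reads were excluded. Nucleation score is the DiMSum log enrichment of output over input reads, centred on the mode score of non-aggregating sequences.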

Substance | amyloid nucleation score
LVGSSSFTAWPTIVSNI | inactive
LVGVSRRSREGDSTLSPSLG | inactive
LVGYRAQLHGVNYSMFVGIS | inactive
LVKLKL | inactive
LVLGWWAIFGVDYGHSSYLL | inactive
LVLMCIIARIAVVYKR | inactive
LVLMVSQGSYFTTI | -0.474 ± 0.57
LVMLMYVVPGFVGGDFTGDF | inactive
LVNDKMLCNYHAMMRLFFFM | inactive
LVQSTRGSRSNTWACNERFV | inactive
LVSHLIGFSCRFNPRSERFC | 1.29 ± 0.1
LVTSNNMSAGRYNMCLRVLS | inactive
LVTSTSMG | 2.77 ± 0.068
LVVDYLEFCTFLVDVENIWT | inactive
LVVGVFKGSRSYVFK | inactive
LVVIG | inactive
LVVLFGPNFLIPVGLRIAVN | 0.245 ± 0.37
LVWSSRPTSW | inactive
LVYREGYIWVMFLIYSFWTV | inactive
LWIWR | -0.43 ± 0.7
LWKVRCSSGHGEIYAYCDMA | inactive
LWLFSGCFGYYVILATLYFL | inactive
LWPRRADVKQASRQPDYQCV | -0.727 ± 1

Substance | amyloid nucleation score
LYAINLWLAVFYRLQQFMDV | inactive
LYDSIVHESKRLLATDRIRF | inactive
LYFCKNKYTCWSACVNSGFN | inactive
LYFMCTNRQVL | inactive
LYFNWWTRGTAMLYGI | inactive
LYFSFIFNLSIQGDAEFVSN | 2.49 ± 0.051
LYGAWSNIPLYMFSFHFMYR | inactive
LYGDL | inactive
LYIIFHNKYFLVEMGNYNCC | 1.88 ± 0.07
LYITMRNVF | inactive
LYKSNPLFPCQFCLISGKFC | 0.868 ± 0.12
LYLGTSYHRNC | inactive
LYMKSTKLVLTKRDISTFRC | 1.11 ± 0.14
LYMYYWLSYVV | inactive
LYNFRECTQTSFISFVCQLV | inactive
LYRAIHHNKFLESACLRYAL | inactive
LYRVVYFDALKNCGYVVSFW | inactive
LYSCRFMNLKTYLVL | inactive
LYSGFI | inactive
LYSVLGVVSTDSRRDAEWCQ | inactive
LYVTRVSVSVVTYRFTCKRV | inactive
MAEPTL | inactive
MAHDEYWTGCVTGYKELEVM | inactive

Substance | amyloid nucleation score
MAVSRK | inactive
MCKMLFSFLCLHKYCWVNVL | inactive
MCLSMVKISKNKLSFTGFLI | inactive
MCPHKGIRSISLMIG | inactive
MCRVV | -0.294 ± 0.93
MCSPYFMSTSNTIFQSTRYG | 1.12 ± 0.12
MDAYRNHFMFTIIKFYSCES | inactive
MDPESVWED | inactive
MDRYFQYPMQDMAQGTVRRD | -0.56 ± 1.7
MELYPLLVGNFSIQKKVECN | inactive
METCPLCIICLYGKWIRFSR | inactive
MEVFFTSTFIGEFNRVCDTY | inactive
MFDIVNKTSELL | inactive
MFECNWAIFRREFLRLVCTV | inactive
MFEIIGHRRMLFIFYNMCYR | inactive
MFFELSLIISCFTEV | 1.42 ± 0.11
MFLCYNVLVVTESLGLAHLD | inactive
MFNFEFLC | 2.33 ± 0.085
MFVVMWVDYLAEHMFYGRWW | inactive
MFWCDNSGIMGADKGVALSW | inactive
MGEPGVDAFNRLTPKWCLIP | inactive
MGNAEEIAIHDSSAWVVVAR | inactive
MGQFVRYLMADSCL | inactive

Substance | amyloid nucleation score
MHAMCQLWCSS | -0.323 ± 1.4
MHAVDNNLRVNIIMSVLLYK | inactive
MHLLLQRIWVLQAK | inactive
MHYMRFLWSGLLWASVETFV | inactive
MICRSSGFLYGCSWFGILYL | inactive
MIDIKCNERAFSEYRFWCRW | 0.141 ± 0.42
MIKMAIRNLGYCSDYRTLCR | inactive
MILYPSYLPYLRMVDTTY | inactive
MISICCGIPCLFIFWFRASA | inactive
MIVVHEFLKGYVFSYRLYNL | inactive
MIWAEQGFFVRWWDLFA | inactive
MIWFVLL | 2.17 ± 0.089
MIWWYGVRSMIIDTGWYMHC | inactive
MKFPEFQASCL | inactive
MKSKKPNSLDENYGSMRHF | inactive
MKSQVHNIKWLPTCS | inactive
MKVWFSLPRILGGVKGTANK | inactive
MKWNPLDQTKL | inactive
MKYAFRFCRPSVRWVYDPRL | inactive
MLAHGFCQVSEWSRALFLRV | -0.244 ± 1.5
MLCAPVANLYCKHPWDS | inactive
MLEGQSSCRVITDLARL | inactive
MLEYRVTARDGVLWEMGFGY | inactive

Substance | amyloid nucleation score
MLFANRHNLESGWSL | inactive
MLFVEFSMGSHCRET | 1.53 ± 0.1
MLHLYQIIMRPYTLSGWWYY | inactive
MLLDTLCNHLRVYKYVRGDG | inactive
MLSGWFGLMIGCTAVVWSDS | inactive
MLSLSLYKLFLRWKRTSSHD | 0.904 ± 0.16
MLSMTRCAHIDGGDWFKMAV | inactive
MLVAGPLGQE | inactive
MLVASGDTAENYSTSVYCV | inactive
MLWLNNGGLYWIALIFEMSS | inactive
MMLGVLYATLWPLLKLDCGE | inactive
MMNVMFD | 0.661 ± 0.23
MMTTGLLGVLTSCNSMT | inactive
MNCWYFLLGACWITIKHLFY | inactive
MNFGFWGTVHWSHASNHVGS | inactive
MNFGYNNSFAIYSVFYSYRC | 2.69 ± 0.055
MNLDNFLFKVCLGSCF | inactive
MNNCLSVDKCFHFMLGFSP | inactive
MNRNVTSRVRTPPVCVRVRF | inactive
MNVFWCACYRCSDRVSMKVW | 2 ± 0.058
MNWYRIFVVNFSCKRLYSVK | 1.64 ± 0.067
MPCVMILYVIYSIY | 0.013 ± 0.59
MPEKERAKSSPYLSEPRPHD | inactive

Substance | amyloid nucleation score
MPEVCDLMDHIICVCYGYID | inactive
MPNLAFSG | 0.006 ± 0.3
MPPRVRYR | inactive
MQLIIIWATRK | 1.43 ± 0.14
MQLSCRLGSLCSQQSNLARS | inactive
MQSNCTVMTNPNDKRMAAWW | inactive
MQYDASP | inactive
MRKLDPFNSKP | inactive
MRNMCVLAIILILCFGTRFK | 1.21 ± 0.08
MRNVVSSISRCFDMKAVQQR | inactive
MRWCNQDQL | inactive
MSCYVV | inactive
MSEVPGMNDTWRVCIMDQGK | inactive
MSGLLCAEIWSRCPASFIGD | inactive
MSIMVASRLALARNVPLQKV | inactive
MSLNLHLKQGVFKGHTVSAL | inactive
MSLNNGGSGSCVCPFR | inactive
MSMFYSNRHNPVKRTSGTGL | inactive
MSMLYSGWAYELTLHYMRPA | inactive
MSMYVTSF | inactive
MSNRHWM | inactive
MSPIDGDDSG | inactive
MSPPCFNRMSYIMLPWFVML | inactive

Substance | amyloid nucleation score
MSSSIILWNFCNMDRCSLLV | -0.084 ± 0.49
MSTMFVPLSCFSENKRQTLS | inactive
MSVRGHSSTVVYLCREPGLK | 0.402 ± 0.38
MSYMMSSTPSVFMACLGDS | inactive
MTLSVRMAEEQN | inactive
MTLWDWDYRLIVRIQLRSTQ | inactive
MTSFIFDVFCSCSCLYQRPL | inactive
MTSFVWSCWRHYYRSRIVVV | inactive
MTSMLVTMMPCWVMRFVVWE | inactive
MVFLVVVWFVKNGWKCVYGS | inactive
MVFQYRYFSLLLVWSNCSGA | inactive
MVGWVWERMRHAPWE | inactive
MVHPDTRKRQTRGTG | inactive
MVKTFVLMTLHLGLMVRFLF | inactive
MVLNERFFYTSTTGVICVTC | 1.73 ± 0.064
MVNTM | inactive
MVREFTQNSKVCSTVLCDGV | inactive
MVWKHYTSLNRDCVFNICCW | 1.78 ± 0.063
MWEKFQWCNIINGINSVCVV | 0.962 ± 0.16
MWLKPCRGKIKMRGYFSLNG | inactive
